Consider 2 molecules from article PMC8602292, “Acyl carrier protein promotes MukBEF action in Escherichia coli chromosome organization-segregation” (Nature Communications, 2021).

For this assay, the target named is T1, MukB (wild type, MukB-His) (Escherichia coli, UniProt P22523 1-1486).
T1 construct: MukB, the SMC protein of Escherichia coli MukBEF; wild type; The end of the tag is read from the printed name 'MukB-His'; The same construct was used with co-purified AcpP or depleted of AcpP by an extended salt gradient on heparin; also called WT MukB; AcpP-depleted MukB; source: E. coli C3013I (NEB), pET vector, purified (TALON, HiTrap Heparin, Superdex 200); not shown: His tag, C-terminal, kept
T1 sequence (looked up): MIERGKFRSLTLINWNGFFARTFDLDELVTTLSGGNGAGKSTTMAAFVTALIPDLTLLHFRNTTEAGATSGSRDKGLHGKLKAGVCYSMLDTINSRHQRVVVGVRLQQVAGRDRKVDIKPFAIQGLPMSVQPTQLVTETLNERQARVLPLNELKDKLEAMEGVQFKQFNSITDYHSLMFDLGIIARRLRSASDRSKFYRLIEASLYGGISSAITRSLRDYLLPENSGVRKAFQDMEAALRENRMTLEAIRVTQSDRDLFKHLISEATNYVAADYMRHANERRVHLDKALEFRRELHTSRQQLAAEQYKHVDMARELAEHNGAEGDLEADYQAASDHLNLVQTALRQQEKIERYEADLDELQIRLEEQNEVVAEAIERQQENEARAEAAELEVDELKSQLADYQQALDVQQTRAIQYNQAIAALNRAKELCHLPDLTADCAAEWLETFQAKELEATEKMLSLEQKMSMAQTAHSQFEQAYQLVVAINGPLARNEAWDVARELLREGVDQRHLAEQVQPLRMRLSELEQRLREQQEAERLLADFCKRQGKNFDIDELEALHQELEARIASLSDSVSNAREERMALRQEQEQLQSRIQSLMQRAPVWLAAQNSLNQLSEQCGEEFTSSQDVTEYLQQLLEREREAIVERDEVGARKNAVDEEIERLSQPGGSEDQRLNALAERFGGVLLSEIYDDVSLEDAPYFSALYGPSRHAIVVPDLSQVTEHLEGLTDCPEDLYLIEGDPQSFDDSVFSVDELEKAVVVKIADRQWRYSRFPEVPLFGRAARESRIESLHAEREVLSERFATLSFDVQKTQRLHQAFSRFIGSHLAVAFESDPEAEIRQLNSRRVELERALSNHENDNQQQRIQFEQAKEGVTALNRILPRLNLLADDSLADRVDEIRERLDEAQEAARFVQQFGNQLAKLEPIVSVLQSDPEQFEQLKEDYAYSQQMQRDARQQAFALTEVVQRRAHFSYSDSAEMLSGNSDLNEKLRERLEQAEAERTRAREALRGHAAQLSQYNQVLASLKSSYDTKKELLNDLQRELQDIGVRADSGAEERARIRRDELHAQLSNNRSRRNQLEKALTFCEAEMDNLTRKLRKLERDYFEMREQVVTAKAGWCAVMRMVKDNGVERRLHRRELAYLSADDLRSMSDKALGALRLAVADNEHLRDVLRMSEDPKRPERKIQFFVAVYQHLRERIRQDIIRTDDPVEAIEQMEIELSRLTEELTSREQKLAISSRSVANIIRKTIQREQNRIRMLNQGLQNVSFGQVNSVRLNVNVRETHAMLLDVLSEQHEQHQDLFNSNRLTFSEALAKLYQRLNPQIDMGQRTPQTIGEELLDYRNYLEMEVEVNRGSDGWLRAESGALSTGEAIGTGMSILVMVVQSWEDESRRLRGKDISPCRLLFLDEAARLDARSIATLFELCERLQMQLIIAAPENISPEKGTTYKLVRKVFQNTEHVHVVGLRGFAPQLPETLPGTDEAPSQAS
The assay is described as follows: native MS; mixtures of MukB, MukE, MukF and AcpP at various concentrations of MukB; 200 mM ammonium acetate pH 8.0. The settings on record: both partners purified.

B1: MukF (His-MukF) (natural protein, Escherichia coli, UniProt P60293 1-440, looked up)
chain: MSEFSQTVPELVAWARKNDFSISLPVDRLSFLLAVATLNGERLDGEMSEGELVDAFRHVSDAFEQTSETIGVRANNAINDMVRQRLLNRFTSEQAEGNAIYRLTPLGIGITDYYIRQREFSTLRLSMQLSIVAGELKRAADAAEEGGDEFHWHRNVYAPLKYSVAEIFDSIDLTQRLMDEQQQQVKDDIAQLLNKDWRAAISSCELLLSETSGTLRELQDTLEAAGDKLQANLLRIQDATMTHDDLHFVDRLVFDLQSKLDRIISWGQQSIDLWIGYDRHVHKFIRTAIDMDKNRVFAQRLRQSVQTYFDEPWALTYANADRLLDMRDEEMALRDEEVTGELPEDLEYEEFNEIREQLAAIIEEQLAVYKTRQVPLDLGLVVREYLSQYPRARHFDVARIVIDQAVRLGVAQADFTGLPAKWQPINDYGAKVQAHVIDKY
notes: MukF, the kleisin of Escherichia coli MukBEF; The end of the tag is read from the printed name 'His-MukF'; also called kleisin MukF; source: E. coli C3013I (NEB), pET vector, purified (TALON, HiTrap DEAE FF, Superdex 200)
In the case of B1, the binding result was “binds”.

B2: MukE (MukE-His) (natural protein, Escherichia coli, UniProt P22524 1-234, looked up)
chain: MSSTNIEQVMPVKLAQALANPLFPALDSALRSGRHIGLDELDNHAFLMDFQEYLEEFYARYNVELIRAPEGFFYLRPRSTTLIPRSVLSELDMMVGKILCYLYLSPERLANEGIFTQQELYDELLTLADEAKLLKLVNNRSTGSDVDRQKLQEKVRSSLNRLRRLGMVWFMGHDSSKFRITESVFRFGADVRAGDDPREAQRRLIRDGEAMPIENHLQLNDETEENQPDSGEEE
notes: MukE, the KITE protein of Escherichia coli MukBEF; The end of the tag is read from the printed name 'MukE-His'; also called KITE protein MukE; source: E. coli C3013I (NEB), pET vector, purified (TALON, HiTrap DEAE FF, Superdex 200)
On to B2, for which the binding result is “binds”.
